Measured values from the supplement of paper PMC12764529.
± gives the half width of the 95% confidence interval.

Assays:
[1] = folding stability dG unfold (combined trypsin and chymotrypsin); higher = more stable
In short: (§1)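 Unfolding free energy was derived, per protease or combined, against a sequence-predicted unfolded-state K50 and a shared folded-state K50, starting from K50 inferred by Bayesian fitting of sequencing counts. Digestion with trypsin and chymotrypsin was carried out on designed mini-proteins under 80 residues without cysteine in a PA-tagged cDNA display construct. Only designs with AlphaFold2 dimer inter-PAE above 15 were kept.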

[2] = folding stability dG unfold from trypsin proteolysis; higher = more stable
In short: as §1

[3] = folding stability dG unfold from chymotrypsin proteolysis; higher = more stable
In short: as §1

Sequence	folding stability dG unfold [1]	folding stability dG unfold [2]	folding stability dG unfold [3]
SAGGSAGGSAGGKKIRFYFPNGNPVELTEILDVDPEDKWARIDVEHNGKKHKHPMPADDLSAGGSAGGSAGG [r7_236_TrROS]	< -1 kcal/mol	-1.36 ± 0.68 kcal/mol	-1.19 ± 0.39 kcal/mol
SAGGSAGGSAGGKKIRIVVPKENLEKIEELAKKLGPDVKIVKVEYFKETDYVVVEVEVKSAGGSAGGSAGGS [r10_23_TrROS_Hall]	2.11 ± 0.086 kcal/mol	2.16 ± 0.06 kcal/mol	1.98 ± 0.075 kcal/mol
SAGGSAGGSAGGKKKKVIEIELKPGEKLTLEQIKEIAKKLNVKKVKVEKVDGKLKIVVESAGGSAGGSAGGS [r10_642_TrROS_Hall]	0.815 ± 0.16 kcal/mol	0.502 ± 0.057 kcal/mol	0.892 ± 0.065 kcal/mol
SAGGSAGGSAGGKKPKVKVIKLTLTVTKLTEKDGKLTLEKKTITLTAVIDPETGKIHLLSAGGSAGGSAGGS [r10_533_TrROS_Hall]	3.5 ± 0.16 kcal/mol	3.2 ± 0.14 kcal/mol	3.5 ± 0.089 kcal/mol
SAGGSAGGSAGGKKPVKITEIHRNPGPNWIRIRIPGNGRPIPIPVPPGKKLTLEDALDFSAGGSAGGSAGGS [r10_844_TrROS]	-0.304 ± 0.19 kcal/mol	-0.648 ± 0.38 kcal/mol	-0.0211 ± 0.29 kcal/mol
SAGGSAGGSAGGKKTITVPVKIEEVDGKFRITLPDGKVIEFPPGAKVEEKDGLLTIELESAGGSAGGSAGGS [r10_305_TrROS_Hall]	1.14 ± 0.11 kcal/mol	0.932 ± 0.025 kcal/mol	1.13 ± 0.078 kcal/mol
SAGGSAGGSAGGKKTIVIEINGKKYTITRIEFDKDTKKITIEIEFNGKKLKIEIELPKNLSAGGSAGGSAGG [r7_477_TrROS_Hall]	3.11 ± 0.27 kcal/mol	2.17 ± 0.078 kcal/mol	3.31 ± 0.16 kcal/mol
SAGGSAGGSAGGKKTYVKKIVTEKKKVKLFFYDKKTGELLEEKEVEVIKTKIYVTKPDEFSAGGSAGGSAGG [r7_573_TrMRF]	0.868 ± 0.26 kcal/mol	0.479 ± 0.13 kcal/mol	0.884 ± 0.31 kcal/mol
SAGGSAGGSAGGKKVILIRGLTPEEIEALAKELEELFPDLKVTIERLPGEEGTLLITVDSAGGSAGGSAGGS [r10_852_TrROS_Hall]	2.38 ± 0.14 kcal/mol	2.92 ± 0.17 kcal/mol	1.91 ± 0.1 kcal/mol
SAGGSAGGSAGGKKVKVIKVSVTYDPKTKKLTIKVEKTGKTYTIPLKEIELVNGYLKIKSAGGSAGGSAGGS [r10_942_TrROS_Hall]	2.21 ± 0.34 kcal/mol	1.78 ± 0.11 kcal/mol	2.45 ± 0.11 kcal/mol
SAGGSAGGSAGGKKVKVLTLTIELEVKDSNGKKYKVKATVTLIYDEKTKKLYLNISIEPSAGGSAGGSAGGS [r10_795_TrROS_Hall]	4.85 ± 0.31 kcal/mol	3.95 ± 0.39 kcal/mol	5.05 ± 0.19 kcal/mol
SAGGSAGGSAGGKKVTITITIKVKEGEEITINGKKITVKPGETITITITITVPPKKKKKSAGGSAGGSAGGS [r10_949_TrROS_Hall]	2.19 ± 0.41 kcal/mol	1.57 ± 0.13 kcal/mol	2.38 ± 0.31 kcal/mol
SAGGSAGGSAGGKKVYKVPSLEEALELAKKNKGKTVEIEVDGKKYKFNKNGKIVEIEPVKSAGGSAGGSAGG [r7_532_TrROS_Hall]	2.14 ± 0.12 kcal/mol	1.36 ± 0.084 kcal/mol	2.38 ± 0.075 kcal/mol
SAGGSAGGSAGGKLILKVKVEVVSVKVEPLPGVPGEVKVEVEVKVEVELIEVSEEELKSSAGGSAGGSAGGS [r10_654_TrROS_Hall]	2.19 ± 0.18 kcal/mol	1.88 ± 0.26 kcal/mol	2.34 ± 0.098 kcal/mol
SAGGSAGGSAGGKLIVLPVTSDEVFDFGDGPIPVPAGSIVVLEISPDGAKALVFSPEDLSAGGSAGGSAGGS [r10_353_TrMRF]	1 ± 0.087 kcal/mol	1.12 ± 0.021 kcal/mol	0.886 ± 0.065 kcal/mol
SAGGSAGGSAGGKMKPVTIYIKNKDGSTAKLKVINGKVEITFPNGEKKTISAKDLKIYKSAGGSAGGSAGGS [r10_1176_TrROS_Hall]	1.22 ± 0.17 kcal/mol	0.631 ± 0.086 kcal/mol	1.49 ± 0.13 kcal/mol
SAGGSAGGSAGGKMLLIKITTKDGREFTLEISEEEAKKLAEELKKKFPNQKIEVEIVPLKSAGGSAGGSAGG [r7_349_TrROS_Hall]	3.21 ± 0.14 kcal/mol	3.21 ± 0.18 kcal/mol	3.16 ± 0.073 kcal/mol
SAGGSAGGSAGGKMRLYRFNLKTNKIEEVEAEPGEVIKITFPGKEIVLVVKDGKIELIPSAGGSAGGSAGGS [r10_817_TrROS_Hall]	0.884 ± 0.21 kcal/mol	0.464 ± 0.13 kcal/mol	1.2 ± 0.22 kcal/mol
SAGGSAGGSAGGKMYLIKVKVDGEEKLIKVKSLEEAKKLLEEKGYKIESVEIFEVEEEEESAGGSAGGSAGG [r7_726_TrROS_Hall]	4.09 ± 0.073 kcal/mol	4.14 ± 0.23 kcal/mol	4.07 ± 0.059 kcal/mol
SAGGSAGGSAGGKNKYYVRVKIKNPNGRTRKINFPFDDPDQIKEQAQKEGWKIDEVEPVSAGGSAGGSAGGS [r10_882_TrROS]	-0.121 ± 0.18 kcal/mol	-0.319 ± 0.25 kcal/mol	-0.064 ± 0.29 kcal/mol
SAGGSAGGSAGGKPGEKKRYRFPAPKFELVSKVKVRVKVLNEDTNELYEKEVEVFVLKLTSAGGSAGGSAGG [r7_64_TrROS_Hall]	2.14 ± 0.21 kcal/mol	1.12 ± 0.045 kcal/mol	2.77 ± 0.16 kcal/mol
SAGGSAGGSAGGKPKLTLTLTLKRTVKNKNGKTTEKTLTLTLTFDSKEEAENALKELGFSAGGSAGGSAGGS [r10_1062_TrROS_Hall]	2.67 ± 0.099 kcal/mol	2.18 ± 0.033 kcal/mol	2.92 ± 0.042 kcal/mol
SAGGSAGGSAGGKPLYLRITVKNKDGSEREIVVPLDTTIDDILAALPPNVTEVKIEVFPVSAGGSAGGSAGG [r7_288_TrROS_Hall]	3.52 ± 0.13 kcal/mol	3.36 ± 0.11 kcal/mol	3.52 ± 0.13 kcal/mol
SAGGSAGGSAGGKPNEVRVANIPIYRRLENGGWELIRPLPIVVPVDASVDFVLDAFKKYSAGGSAGGSAGGS [r10_470_TrMRF]	0.658 ± 0.048 kcal/mol	0.392 ± 0.041 kcal/mol	0.815 ± 0.076 kcal/mol
SAGGSAGGSAGGKPTITVTYDKENNTVTITFPDGSKIEITVPENATEEEVKKLVEELAKSAGGSAGGSAGGS [r10_33_TrROS_Hall]	2.97 ± 0.22 kcal/mol	2.62 ± 0.18 kcal/mol	3.13 ± 0.11 kcal/mol
SAGGSAGGSAGGKTIRFKAKSPEEIAEKIKKGEEILTPDGKPVKITKVEPLPDGSVLITGSAGGSAGGSAGG [r11_48_TrMRF]	0.46 ± 0.081 kcal/mol	0.0865 ± 0.17 kcal/mol	0.588 ± 0.18 kcal/mol
